Several values for one entry are separate records, joined by “and”; a condition that tells them apart may be missing. Equal entries are not always repeated.
B1: Vpr^75-90 (peptide)
peptide: GCRHSRIGVTRQRRAR
notes: HIV-1 Vpr residues 75-90; source: synthetic peptide
B2: full-length synthetic HIV-1 Vpr (Vpr^1-96) (natural protein)
chain: MEQAPEDQGPQREPYNEWTLELLEELKSEAVRHFPRIWLHNLGQHIYETYGDTWAGVEAIIRILQQLLFIHFRIGCRHSRIGVTRQRRARNGASRS

What was measured:
Details in all cases: both partners purified
human cyclophilin A [1] = biological target: T1, human cyclophilin A (human, UniProt P62937 1-165); experiment: SPR
T1 construct: also called CypA; peptidyl prolyl isomerase cyclophilin A; source: recombinant, highly pure; production and purification described previously [14]
T1 sequence (P62937 whole entry): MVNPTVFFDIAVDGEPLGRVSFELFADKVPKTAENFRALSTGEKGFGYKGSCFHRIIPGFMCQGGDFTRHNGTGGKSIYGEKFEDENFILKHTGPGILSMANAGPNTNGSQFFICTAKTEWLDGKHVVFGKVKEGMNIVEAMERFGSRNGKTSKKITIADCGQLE

human cyclophilin A [2] = biological target: T1, human cyclophilin A; experiment: SPR; remark: listed apart in the source
human cyclophilin A [3] = biological target: T1, human cyclophilin A; experiment: ITC

Row | Binder | binding result (human cyclophilin A [1]) | Kd (human cyclophilin A [2]) | koff (human cyclophilin A [2]) | kon (human cyclophilin A [2]) | Ka (human cyclophilin A [3]) | Kd (human cyclophilin A [3]) | dH (human cyclophilin A [3]) | stoichiometry N (human cyclophilin A [3])
1 | AVRHFPRIWLH [Vpr^30-40] | binds | – | – | – | – | – | – | –
2 | B1 | – | 280 nM | 0.0063 s⁻¹ | 81000 M⁻¹ s⁻¹ | 9e+06 M⁻¹ and 1.7e+07 M⁻¹ | 120 nM and 60 nM | -17.4 kcal/mol and -16.5 kcal/mol | 0.98 and 1
3 | GCRHSAIGVTRQRRAR (source: synthetic peptide) [Vpr^75-90 (R80A)] | – | 7500 nM | 0.027 s⁻¹ | 3800 M⁻¹ s⁻¹ | – | – | – | –
4 | B2 | – | 310 nM and 320 nM | 0.007 s⁻¹ and 0.00422 s⁻¹ | 32000 M⁻¹ s⁻¹ and 16000 M⁻¹ s⁻¹ | – | – | – | –

Reference: article PMC3269379, “The Host-Pathogen interaction of human cyclophilin A and HIV-1 Vpr requires specific N-terminal and novel C-terminal domains” (BMC Structural Biology, 2011)
